We go through nine molecules from patent US20240425571A1, “GLYCOPROTEIN A REPETITIONS PREDOMINANT (GARP)-BINDING ANTIBODIES AND USES THEREOF” (OHIO STATE INNOVATION FOUNDATION, priority 2021, published 2024).

First the molecules themselves.
B1: H2L3: humanized PIIO-1 antibody, VH SEQ ID NO: 21 and VL SEQ ID NO: 22 (antibody, V domains shown)
VH: QVQLQESGPGLVKPSQTLSLTCTVSGYSITSDYAWNWIRQFPGNKLEWMGYISYSGSTSYTPSLKSRITISRDTSKNHFFLKLSSVTAADTAVYYCAKSGGDYYGSSSYWYFDVWGQGTMVTVSS
VL: DIVLTQSPSSLAVSAGERVTMSCKSSQSLLNSRSQKNYLAWYQQKPGQPPKLLIYGASTRGSGVPDRFSGSGSGTDFTLTISSVQAEDVAVYYCQNDHSYPFTFGSGTKLEIKR
B2: H3L2: humanized PIIO-1 antibody, VH SEQ ID NO: 19 and VL SEQ ID NO: 24 (antibody, V domains shown)
VH: B1 VH with Q1D, V93T, M120T
VL: B1 VL with A15L, S22N, S106Q
B3: H4L2: humanized PIIO-1 antibody, VH SEQ ID NO: 18 and VL SEQ ID NO: 24 (antibody, V domains shown)
VH: B1 VH with Q1D, K82Q, A89E, V93T, M120T
VL: B1 VL with A15L, S22N, S106Q
B4: H4L1: humanized PIIO-1 antibody, VH SEQ ID NO: 18 and VL SEQ ID NO: 23 (antibody, V domains shown)
VH: B1 VH with Q1D, K82Q, A89E, V93T, M120T
VL: B1 VL with A15L, V19A, S22N, V84L, S106Q
B5: H4L3: humanized PIIO-1 antibody, VH SEQ ID NO: 18 and VL SEQ ID NO: 22 (antibody, V domains shown)
VH: B1 VH with Q1D, K82Q, A89E, V93T, M120T
VL: B1 VL
B6: H3L3: humanized PIIO-1 antibody, VH SEQ ID NO: 19 and VL SEQ ID NO: 22 (antibody, V domains shown)
VH: B1 VH with Q1D, V93T, M120T
VL: B1 VL
B7: H3L1: humanized PIIO-1 antibody, VH SEQ ID NO: 19 and VL SEQ ID NO: 23 (antibody, V domains shown)
VH: B1 VH with Q1D, V93T, M120T
VL: B1 VL with A15L, V19A, S22N, V84L, S106Q
B8: H1L3: humanized PIIO-1 antibody, VH SEQ ID NO: 20 and VL SEQ ID NO: 22 (antibody, V domains shown)
VH: B1 VH with I68V, F80S
VL: B1 VL
B9: H2L2: humanized PIIO-1 antibody, VH SEQ ID NO: 21 and VL SEQ ID NO: 24 (antibody, V domains shown)
VH: B1 VH
VL: B1 VL with A15L, S22N, S106Q

Numbering of substitutions follows the chain as printed.

The subject of the first assay is Ag(−) cell. The experiment in a line: FACS analysis with Ag(−) cell (non-specific binding). As to conditions: Heating, 5 ug/ml. How it is done:
Methods—FACS analysis. Cell preparation: Cell were harvested and washed with PBS+2% FBS for one time. Cell density was adjusted to 1.5E6/mL in PBS/2% FBS. Cell were added to 96 U-bottom well plates at 100 μL/well. Antibody samples preparation: Antibody in supernatant was adjusted to 10 μg/mL using PBS+2% FBS, with serial 5 times dilution performed to obtain 3 concentrations of antibody solution. The blank was PBS+2% FBS. Antibody solutions were placed into 96 U-bottom well plates at 100 μL/well in the same arranging pattern as the cell preparation. Incubation: The antibody samples (100 μl) were mixed with the cells (100 μl), and incubated at RT for 1 h, then centrifuged the plate for 3 min at 1000 rpm (swing bucket). The supernatant was pipetted and the cells were washed with PBS+2% FBS for one time. Incubation with the secondary antibody: Cy3-Conjugated AffiniPure Goat Anti-Human IgG was diluted 250× by PBS+2% FBS, and added to the 96 U-bottom well plate with 100 μl/well, then incubated at RT for 30 min. After that, the plate was centrifuged at 1000 rpm for 3 min and the supernatant was pipetted out. The cell was washed with PBS+2% FBS twice. Cells were re-suspended in 200 μl PBS+2% FBS and analyzed on FACS. The MFI of total live cells were used as binding signal.
Methods—heat treatment. Culture supernatant was serial diluted to the indicated concentration of IgG with cell media and heated at 70° C. for 5 mins on a PCR machine, then quickly cooled down to room temperature.
(In general: Flow cytometry measures light scatter and fluorescence of single cells or particles in a stream.)
In the case of B1, the “FACS with Ag(−) cell (MFI)” value is on record as 3.35. The same measure, in the same setting: the result for B2 reads 3.26; that for B3, 3.29. Turning to B4, the “FACS with Ag(−) cell (MFI)” value is reported as 3.25. B5: the “FACS with Ag(−) cell (MFI)” value was found to be 3.36. The same measure, in the same setting: the result for B6 reads 3.29. As to B7, the “FACS with Ag(−) cell (MFI)” value was determined as 3.4.

With B8, the “FACS with Ag(−) cell (MFI)” value is given as 3.33.

Still in this assay, the particulars now being: Non-Heating, 5 ug/ml.
Consider B1, for which the “FACS with Ag(−) cell (MFI)” value is recorded as 3.18.

For B2, the “FACS with Ag(−) cell (MFI)” value is recorded as 3.37.

For the molecule B3, the “FACS with Ag(−) cell (MFI)” value is given as 3.26. Turning to B4, the “FACS with Ag(−) cell (MFI)” value stood at 3.11.

Consider B5, for which the “FACS with Ag(−) cell (MFI)” value is given as 3.27. Turning to B6, the “FACS with Ag(−) cell (MFI)” value is given as 3.16.

For the molecule B7, the “FACS with Ag(−) cell (MFI)” value is 3.28. Consider B8, for which the “FACS with Ag(−) cell (MFI)” value came out at 3.22. As for B9, the “FACS with Ag(−) cell (MFI)” value is given as 3.24.
